Patent publication US20260250404A1 (Genmab, published 2026)
Changes are numbered by the printed parent chain. Names may count otherwise.

How the values were obtained:
[1] = biological target: T1, human complement protein C1q (from normal human serum) (human, UniProt P02745 23-245; P02746 28-253; P02747 29-245); experiment: flow cytometry, C1q (20% normal human serum) binding to antibody bound on human T cells, FITC anti-C1q
T1 construct: Native C1q supplied as 20% normal human serum

[2] = biological target: T2, recombinant His-tagged human FcγRIIb (human, UniProt P31994 43-217, limits assumed); experiment: SPR (Biacore), His-tagged FcγR captured on anti-His chip, antibody injected
T2 sequence (looked up): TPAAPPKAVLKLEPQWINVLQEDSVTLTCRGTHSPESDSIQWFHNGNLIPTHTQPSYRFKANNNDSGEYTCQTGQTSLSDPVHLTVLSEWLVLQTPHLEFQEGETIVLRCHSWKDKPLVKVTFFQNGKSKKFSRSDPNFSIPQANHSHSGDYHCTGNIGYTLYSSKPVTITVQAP

[3] = biological target: T3, recombinant His-tagged human FcγRIIa, 167-His [H] / H131 variant (human, UniProt P12318 34-218, limits assumed); experiment: as above
T3 construct: catalogue numbers differ; also called FcγRIIa-H; FcγRIIa-H131
T3 sequence (looked up): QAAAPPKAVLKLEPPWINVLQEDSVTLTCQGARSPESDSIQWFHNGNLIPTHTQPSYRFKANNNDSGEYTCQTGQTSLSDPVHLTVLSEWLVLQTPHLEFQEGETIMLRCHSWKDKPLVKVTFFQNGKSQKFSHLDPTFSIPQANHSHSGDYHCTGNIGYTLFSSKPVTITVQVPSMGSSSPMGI

[4] = biological target: T4, recombinant His-tagged human FcγRIIa, 167-Arg [R] / R131 variant (human, UniProt P12318 34-218, limits assumed); experiment: as above
T4 construct: catalogue numbers differ; also called FcγRIIa-R; FcγRIIa-R131
T4 sequence (looked up): T3 sequence (looked up) with H134R

[5] = biological target: T5, recombinant His-tagged human FcγRIIIa, 176-Val [V] / V158 variant (human, UniProt P08637 17-208); experiment: as above
T5 construct: also called FcγRIIIa-V; FcγRIIIa-V158

[6] = biological target: T6, human CD27 on the cell surface (T cells, transfected HEK293F cells, Daudi cells, NFκB-luc2/CD27 Jurkat cells) (human, UniProt P26842 20-240); experiment: flow cytometry on CD8+ T cells in human healthy donor PBMC, FITC goat anti-human IgG F(ab')2, median FITC
T6 construct: Full length human CD27, endogenous or transfected; also called TNFRSF7

[7] = biological target: T6, human CD27 on the cell surface (T …); experiment: flow cytometry on CD4+ T cells in human healthy donor PBMC, FITC goat anti-human IgG F(ab')2, median FITC
[8] = biological target: recombinant His-tagged human FcγRIa (Sino Biological 10256-H08S-B) (human, UniProt P12314 16-288); experiment: SPR (Biacore), His-tagged FcγR captured on anti-His chip, antibody injected, resonance units after background subtraction
[9] = biological target: T7, recombinant His-tagged human FcγRIIIa, 176-Phe [F] / F158 variant (human, UniProt P08637 17-208); experiment: SPR (Biacore), His-tagged FcγR captured on anti-His chip, antibody injected
T7 construct: also called FcγRIIIa-F; FcγRIIIa-F158

[10] = biological target: T3, recombinant His-tagged human FcγRIIa, …; experiment: SPR (Biacore), His-tagged FcγR captured on anti-His chip, antibody injected, resonance units after background subtraction
[11] = biological target: T2, recombinant His-tagged human FcγRIIb; experiment: as above
[12] = biological target: T7, recombinant His-tagged human FcγRIIIa, …; experiment: as above
[13] = biological target: T4, recombinant His-tagged human FcγRIIa, …; experiment: as above
[14] = biological target: T5, recombinant His-tagged human FcγRIIIa, …; experiment: as above
[15] = biological target: T8, human PD-1 on the cell surface (transfected CHO-S cells; PD-1 effector reporter Jurkat T cells) (human, UniProt Q15116 25-288); experiment: flow cytometry on CHO-S cells transiently transfected with human PD-1, gMFI (PE)
T8 construct: also called CD279

[16] = biological target: T9, mouse PD-1 on transfected CHO-S cells (mouse, UniProt Q02242 25-288); experiment: flow cytometry on CHO-S cells transiently transfected with mouse PD-1, gMFI (PE)
T9 construct: whole, on cells
T9 sequence (looked up): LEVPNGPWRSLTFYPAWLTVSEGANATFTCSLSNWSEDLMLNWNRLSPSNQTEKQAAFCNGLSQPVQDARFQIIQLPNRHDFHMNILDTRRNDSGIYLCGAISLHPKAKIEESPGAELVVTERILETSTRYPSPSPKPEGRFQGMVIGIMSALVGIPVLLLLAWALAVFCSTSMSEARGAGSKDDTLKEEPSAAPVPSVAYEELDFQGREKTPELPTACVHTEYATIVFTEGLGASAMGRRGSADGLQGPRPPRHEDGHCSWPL

[17] = biological target: T10, rat PD-1 on transfected CHO-S cells (rat, UniProt D3ZIN8 25-287); experiment: flow cytometry on CHO-S cells transiently transfected with rat PD-1, gMFI (PE)
T10 sequence: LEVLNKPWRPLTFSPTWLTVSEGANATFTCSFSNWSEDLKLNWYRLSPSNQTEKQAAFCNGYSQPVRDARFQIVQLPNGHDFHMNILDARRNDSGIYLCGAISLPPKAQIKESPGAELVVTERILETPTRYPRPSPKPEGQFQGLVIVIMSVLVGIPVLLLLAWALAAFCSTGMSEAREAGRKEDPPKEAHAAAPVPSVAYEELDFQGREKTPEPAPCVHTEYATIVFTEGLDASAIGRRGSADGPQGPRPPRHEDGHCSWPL

[18] = biological target: T11, human FcγRIa on the cell surface (transfected CHO-S cells, M0/M1 macrophages, hMDM, FcγRI effector reporter … (human, UniProt P12314 16-374)); experiment: flow cytometry on CHO-S cells transiently expressing human FcγRIa, % PE+ cells
T11 construct: whole, on cells; also called CD64

[19] = biological target: cynomolgus monkey PD-1 on transfected CHO-S cells (cynomolgus monkey, UniProt B0LAJ3 25-288); experiment: flow cytometry on CHO-S cells transiently transfected with cynomolgus monkey PD-1, gMFI (PE)
[20] = biological target: T12, IgG1-CD27-A-P329R-E345R-LHalo (HaloTag NanoBret 618 ligand bound to the HaloTag); experiment: NanoBRET proximity assay between NanoLuc- and HaloTag-tagged antibodies (5 µg/mL each) bound on cells, corrected BRET (mBU)
T12 construct: Light chain fused to HaloTag; heavy chain as for m63

[21] = biological target: T11, human FcγRIa on the cell surface …; experiment: flow cytometry on human monocyte-derived M0 macrophages, PE-labeled goat anti-human IgG, GeoMean-PE

T6 sequence (P26842 20-240): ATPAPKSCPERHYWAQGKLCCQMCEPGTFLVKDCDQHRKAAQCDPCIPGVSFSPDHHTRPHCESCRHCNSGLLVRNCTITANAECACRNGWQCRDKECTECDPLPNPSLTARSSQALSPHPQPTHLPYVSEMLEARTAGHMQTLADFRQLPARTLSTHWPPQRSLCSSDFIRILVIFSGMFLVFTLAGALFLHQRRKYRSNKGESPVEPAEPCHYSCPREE
T11 sequence (P12314 16-374): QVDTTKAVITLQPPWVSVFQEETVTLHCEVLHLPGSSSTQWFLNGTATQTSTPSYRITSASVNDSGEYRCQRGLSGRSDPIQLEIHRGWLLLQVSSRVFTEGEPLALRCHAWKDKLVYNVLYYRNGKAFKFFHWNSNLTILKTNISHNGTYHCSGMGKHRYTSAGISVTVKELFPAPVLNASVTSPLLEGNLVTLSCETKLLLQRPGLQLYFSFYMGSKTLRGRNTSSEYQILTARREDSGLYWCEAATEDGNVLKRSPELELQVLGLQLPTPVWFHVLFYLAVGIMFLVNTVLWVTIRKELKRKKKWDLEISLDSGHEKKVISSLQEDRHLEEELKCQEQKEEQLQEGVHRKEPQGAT
Sequence of recombinant His-tagged human FcγRIa (Sino Biological 10256-H08S-B) (P12314 16-288 limits assumed, stated change not applied): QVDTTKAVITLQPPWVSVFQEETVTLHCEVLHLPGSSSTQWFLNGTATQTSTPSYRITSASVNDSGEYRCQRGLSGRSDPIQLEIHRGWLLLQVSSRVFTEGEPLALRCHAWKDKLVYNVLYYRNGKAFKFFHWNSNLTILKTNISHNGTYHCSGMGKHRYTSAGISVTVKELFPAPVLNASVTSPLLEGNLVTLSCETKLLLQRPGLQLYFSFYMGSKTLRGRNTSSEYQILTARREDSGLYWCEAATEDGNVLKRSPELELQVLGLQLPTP
T7 sequence (P08637 17-208 limits assumed, change not shown): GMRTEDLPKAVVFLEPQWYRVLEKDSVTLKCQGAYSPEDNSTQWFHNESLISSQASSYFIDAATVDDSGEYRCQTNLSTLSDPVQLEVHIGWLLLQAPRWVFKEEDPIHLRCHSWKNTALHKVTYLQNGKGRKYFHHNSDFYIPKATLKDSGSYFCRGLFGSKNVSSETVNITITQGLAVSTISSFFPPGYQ
T5 sequence (P08637 other isoform, or with tags, fused parts or gaps mutant limits assumed): as the sequence (P08637 17-208 limits assumed, change not shown) above, with F160V counted along it
T12 sequence (heavy, as listed by the source): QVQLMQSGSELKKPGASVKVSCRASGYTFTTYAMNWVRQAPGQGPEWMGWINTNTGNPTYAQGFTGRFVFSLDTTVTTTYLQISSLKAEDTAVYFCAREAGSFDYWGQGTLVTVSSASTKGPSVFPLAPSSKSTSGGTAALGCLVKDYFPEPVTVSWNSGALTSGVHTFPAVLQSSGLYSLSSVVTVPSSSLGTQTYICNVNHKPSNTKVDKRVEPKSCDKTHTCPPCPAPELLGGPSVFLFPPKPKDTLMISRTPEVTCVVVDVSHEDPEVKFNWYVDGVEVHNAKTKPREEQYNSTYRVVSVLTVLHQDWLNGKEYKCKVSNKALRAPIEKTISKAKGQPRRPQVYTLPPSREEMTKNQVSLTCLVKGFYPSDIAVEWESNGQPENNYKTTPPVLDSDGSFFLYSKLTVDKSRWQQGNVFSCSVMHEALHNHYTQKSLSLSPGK
T8 sequence (Q15116 25-288 limits assumed): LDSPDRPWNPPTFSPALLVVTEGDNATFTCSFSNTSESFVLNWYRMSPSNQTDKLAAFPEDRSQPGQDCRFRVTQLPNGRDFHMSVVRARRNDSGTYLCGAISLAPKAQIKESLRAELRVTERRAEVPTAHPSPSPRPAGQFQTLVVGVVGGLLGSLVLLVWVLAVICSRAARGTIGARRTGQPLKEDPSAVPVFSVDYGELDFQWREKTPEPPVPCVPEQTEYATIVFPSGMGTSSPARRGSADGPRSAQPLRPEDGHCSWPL
Sequence of cynomolgus monkey PD-1 on transfected CHO-S cells (B0LAJ3 entry or part of it limits assumed): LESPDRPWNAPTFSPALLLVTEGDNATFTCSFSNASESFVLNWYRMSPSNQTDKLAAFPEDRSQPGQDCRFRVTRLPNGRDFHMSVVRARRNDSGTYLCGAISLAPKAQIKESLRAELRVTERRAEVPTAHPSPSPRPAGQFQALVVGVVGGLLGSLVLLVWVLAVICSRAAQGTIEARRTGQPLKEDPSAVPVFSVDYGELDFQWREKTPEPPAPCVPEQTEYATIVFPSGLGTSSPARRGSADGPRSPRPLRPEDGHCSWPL
T1 sequence (P02745 23-245, chain 1 of 3): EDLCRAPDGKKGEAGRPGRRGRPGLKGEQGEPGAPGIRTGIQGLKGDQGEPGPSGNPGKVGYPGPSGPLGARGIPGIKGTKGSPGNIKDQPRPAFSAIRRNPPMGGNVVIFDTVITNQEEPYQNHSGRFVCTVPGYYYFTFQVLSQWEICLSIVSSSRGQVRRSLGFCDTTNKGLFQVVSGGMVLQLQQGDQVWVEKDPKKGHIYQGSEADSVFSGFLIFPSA
T1 sequence (P02746 28-253, chain 2 of 3): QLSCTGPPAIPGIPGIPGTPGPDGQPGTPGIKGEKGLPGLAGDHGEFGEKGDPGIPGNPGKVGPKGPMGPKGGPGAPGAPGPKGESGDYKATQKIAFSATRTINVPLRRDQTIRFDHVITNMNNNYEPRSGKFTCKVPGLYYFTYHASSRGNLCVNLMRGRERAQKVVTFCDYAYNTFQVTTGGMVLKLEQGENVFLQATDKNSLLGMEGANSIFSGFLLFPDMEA
T1 sequence (P02747 29-245, chain 3 of 3): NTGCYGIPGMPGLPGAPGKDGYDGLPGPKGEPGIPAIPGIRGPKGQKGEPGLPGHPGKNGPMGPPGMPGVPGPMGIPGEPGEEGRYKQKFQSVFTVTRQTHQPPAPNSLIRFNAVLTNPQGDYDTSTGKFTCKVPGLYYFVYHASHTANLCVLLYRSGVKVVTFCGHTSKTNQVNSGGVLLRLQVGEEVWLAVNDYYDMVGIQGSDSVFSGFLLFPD

B1: IgG1-CD27-A-P329R-E345R (antibody)
heavy: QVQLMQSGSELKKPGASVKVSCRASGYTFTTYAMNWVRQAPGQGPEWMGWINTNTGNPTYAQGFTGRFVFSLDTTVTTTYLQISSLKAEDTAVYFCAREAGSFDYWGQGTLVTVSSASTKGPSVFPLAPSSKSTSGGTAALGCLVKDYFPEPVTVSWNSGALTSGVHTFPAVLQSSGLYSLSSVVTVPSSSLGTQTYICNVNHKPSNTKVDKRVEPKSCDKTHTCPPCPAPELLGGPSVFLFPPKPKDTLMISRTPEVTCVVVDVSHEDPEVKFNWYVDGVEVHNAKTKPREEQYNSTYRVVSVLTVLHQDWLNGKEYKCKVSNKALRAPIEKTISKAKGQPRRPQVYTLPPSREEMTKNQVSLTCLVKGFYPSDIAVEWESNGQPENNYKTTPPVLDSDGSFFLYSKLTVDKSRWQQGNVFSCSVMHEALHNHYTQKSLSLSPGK
light: QSALTQPASVSGSPGQSITISCTGTSSDVYYYNYVSWYQQHPGRAPKLVIYDVSNRPSGVSNRFSGSKSGNTASLTISGLRAEDEADYYCSSYTVNRVWVFGGGTKLTVLGQPKAAPSVTLFPPSSEELQANKATLVCLISDFYPGAVTVAWKADSSPVKAGVETTTPSKQSNNKYAASSYLSLTPEQWKSHRSYSCQVTHEGSTVEKTVAPTECS
notes: also called IgG1-CD27-A-E345R-P329R; IgG-CD27-A-P329R-E345R
B1: no binding (tested: 15 µg/mL) [1]; no binding (tested: 10,000 nM) [2]; no binding (tested: 10,000 nM) [3]. For the same binder, the binding result [4] was “no binding (tested: 10,000 nM)”, the binding result [5] was “no binding (tested: 10,000 nM)” and the “EC50 (read off the curve)” value [6] was ~0.03 µg/mL. For the same binder, the “EC50 (read off the curve)” value [7] was ~0.03 µg/mL, the binding result [8] was “binds” and the binding result [9] was “no binding (tested: 10,000 nM)”.

B2: IgG1-b12, anti-HIV gp120 antibody with wild-type IgG1 Fc (antibody)
heavy: not shown
light: EIVLTQSPGTLSLSPGERATFSCRSSHSIRSRRVAWYQHKPGQAPRLVIHGVSNRASGISDRFSGSGSGTDFTLTITRVEPEDFALYYCQVYGASSYTFGQGTKLERKRTVAAPSVFIFPPSDEQLKSGTASVVCLLNNFYPREAKVQWKVDNALQSGNSQESVTEQDSKDSTYSLSSTLTLSKADYEKHKVYACEVTHQGLSSPVTKSFNRGEC
notes: also called WT IgG1-b12; ctrl; copies: 2 + 2
B2: binds [10]; binds [11]; binds [12]. The “EC50 (read off the curve)” value [8] was ~60 nM, the binding result [13] was “binds” and the binding result [14] was “binds”.

B3: IgG1-ctrl-FERR (b12 antigen-binding domains, IgG1m(f)-L234F-L235E-G236R-K409R) (antibody)
heavy: QVQLVQSGAEVKKPGASVKVSCQASGYRFSNFVIHWVRQAPGQRFEWMGWINPYNGNKEFSAKFQDRVTFTADTSANTAYMELRSLRSADTAVYYCARVGPYSWDDSPQDNYYMDVWGKGTTVIVSSASTKGPSVFPLAPSSKSTSGGTAALGCLVKDYFPEPVTVSWNSGALTSGVHTFPAVLQSSGLYSLSSVVTVPSSSLGTQTYICNVNHKPSNTKVDKRVEPKSCDKTHTCPPCPAPEFERGPSVFLFPPKPKDTLMISRTPEVTCVVVDVSHEDPEVKFNWYVDGVEVHNAKTKPREEQYNSTYRVVSVLTVLHQDWLNGKEYKCKVSNKALPAPIEKTISKAKGQPREPQVYTLPPSREEMTKNQVSLTCLVKGFYPSDIAVEWESNGQPENNYKTTPPVLDSDGSFFLYSRLTVDKSRWQQGNVFSCSVMHEALHNHYTQKSLSLSPG
light: B2 light
B3: no binding (tested: 10 µg/mL) [15]; no binding (tested: 10 µg/mL) [16]; no binding (tested: 10 µg/mL) [17]. B3: no binding (tested: 10 µg/mL) [18]; no binding (tested: 10 µg/mL) [19].

B4: IgG1-CD27-A-P329R-E345R-LNLuc (antibody)
heavy: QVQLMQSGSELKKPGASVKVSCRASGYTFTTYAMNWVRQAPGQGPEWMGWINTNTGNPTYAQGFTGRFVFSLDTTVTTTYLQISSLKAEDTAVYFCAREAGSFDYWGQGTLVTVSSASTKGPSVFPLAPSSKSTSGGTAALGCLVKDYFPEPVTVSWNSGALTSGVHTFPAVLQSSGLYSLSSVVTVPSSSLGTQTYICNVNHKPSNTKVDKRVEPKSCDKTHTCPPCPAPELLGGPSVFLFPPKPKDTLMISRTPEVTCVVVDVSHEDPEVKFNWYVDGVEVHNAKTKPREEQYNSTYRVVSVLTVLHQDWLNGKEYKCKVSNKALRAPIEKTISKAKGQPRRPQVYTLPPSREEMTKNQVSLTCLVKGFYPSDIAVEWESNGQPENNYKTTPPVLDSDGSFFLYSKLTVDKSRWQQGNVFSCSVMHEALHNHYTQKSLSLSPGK
light: QSALTQPASVSGSPGQSITISCTGTSSDVYYYNYVSWYQQHPGRAPKLVIYDVSNRPSGVSNRFSGSKSGNTASLTISGLRAEDEADYYCSSYTVNRVWVFGGGTKLTVLGQPKAAPSVTLFPPSSEELQANKATLVCLISDFYPGAVTVAWKADSSPVKAGVETTTPSKQSNNKYAASSYLSLTPEQWKSHRSYSCQVTHEGSTVEKTVAPTECSSLGSSGVFTLEDFVGDWRQTAGYNLDQVLEQGGVSSLFQNLGVSVTPIQRIVLSGENGLKIDIHVIIPYEGLSGDQMGQIEKIFKVVYPVDDHHFKVILHYGTLVIDGVTPNMIDYFGRPYEGIAVFDGKKITVTGTLWNGNKIIDERLINPDGSLLFRVTINGVTGWRLCERILA
B4: binds [20].

B5: IgG1-b12-P329R-E345R (antibody)
VH: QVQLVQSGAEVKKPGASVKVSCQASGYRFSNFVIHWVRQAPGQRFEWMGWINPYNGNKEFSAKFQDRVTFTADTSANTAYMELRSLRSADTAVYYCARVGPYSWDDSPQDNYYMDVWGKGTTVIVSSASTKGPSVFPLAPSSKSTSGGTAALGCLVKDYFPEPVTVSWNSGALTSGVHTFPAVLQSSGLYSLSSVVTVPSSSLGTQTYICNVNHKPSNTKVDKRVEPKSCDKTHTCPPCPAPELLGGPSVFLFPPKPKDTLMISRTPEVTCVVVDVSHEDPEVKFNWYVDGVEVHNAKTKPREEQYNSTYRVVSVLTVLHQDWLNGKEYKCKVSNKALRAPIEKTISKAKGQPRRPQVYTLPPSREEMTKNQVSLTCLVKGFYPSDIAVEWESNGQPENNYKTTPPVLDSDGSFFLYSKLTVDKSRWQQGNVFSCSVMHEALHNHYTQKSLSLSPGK
VL: B2 light
notes: also called ctrl; IgG1-b12-E345R-P329R
B5: no binding (tested: 10 µg/ml) [7]; no binding (tested: 30 µg/mL) [21].
